# B1: A4: alkaline phosphatase coupled to mono-functional IPDI-capped methoxy polyethylene oxide, NCO:NH2 14.9:1 (conjugate, UniProt P19111 20-506, looked up)
# Intestinal-type alkaline …: LVPVEEEDPAFWNRQAAQALDVAKKLQPIQTAAKNVILFLGDGMGVPTVTATRILKGQMNGKLGPETPLAMDQFPYVALSKTYNVDRQVPDSAGTATAYLCGVKGNYRTIGVSAAARYNQCKTTRGNEVTSVMNRAKKAGKSVGVVTTTRVQHASPAGAYAHTVNRNWYSDADLPADAQMNGCQDIAAQLVNNMDIDVILGGGRKYMFPVGTPDPEYPDDASVNGVRKRKQNLVQAWQAKHQGAQYVWNRTALLQAADDSSVTHLMGLFEPADMKYNVQQDHTKDPTLQEMTEVALRVVSRNPRGFYLFVEGGRIDHGHHDDKAYMALTEAGMFDNAIAKANELTSELDTLILVTADHSHVFSFGGYTLRGTSIFGLAPSKALDSKSYTSILYGNGPGYALGGGSRPDVNDSTSEDPSYQQQAAVPQASETHGGEDVAVFARGPQAHLVHGVEEETFVAHIMAFAGCVEPYTDCNLPAPTTATSIPD
# modifications: coupled to IPDI-capped methoxy PEG
# B2: Example IX: calf intestine alkaline phosphatase conjugated with Prepolymer A (low temperature), 1 hour reaction (conjugate, UniProt P19111 20-506, looked up)
# Intestinal-type alkaline …: LVPVEEEDPAFWNRQAAQALDVAKKLQPIQTAAKNVILFLGDGMGVPTVTATRILKGQMNGKLGPETPLAMDQFPYVALSKTYNVDRQVPDSAGTATAYLCGVKGNYRTIGVSAAARYNQCKTTRGNEVTSVMNRAKKAGKSVGVVTTTRVQHASPAGAYAHTVNRNWYSDADLPADAQMNGCQDIAAQLVNNMDIDVILGGGRKYMFPVGTPDPEYPDDASVNGVRKRKQNLVQAWQAKHQGAQYVWNRTALLQAADDSSVTHLMGLFEPADMKYNVQQDHTKDPTLQEMTEVALRVVSRNPRGFYLFVEGGRIDHGHHDDKAYMALTEAGMFDNAIAKANELTSELDTLILVTADHSHVFSFGGYTLRGTSIFGLAPSKALDSKSYTSILYGNGPGYALGGGSRPDVNDSTSEDPSYQQQAAVPQASETHGGEDVAVFARGPQAHLVHGVEEETFVAHIMAFAGCVEPYTDCNLPAPTTATSIPD
# modifications: conjugated with Prepolymer A
# B3: B3: alkaline phosphatase coupled to IPDI-capped diol TAKELACK P-24, NCO:NH2 6.8:1 (conjugate, UniProt P19111 20-506, looked up)
# Intestinal-type alkaline …: LVPVEEEDPAFWNRQAAQALDVAKKLQPIQTAAKNVILFLGDGMGVPTVTATRILKGQMNGKLGPETPLAMDQFPYVALSKTYNVDRQVPDSAGTATAYLCGVKGNYRTIGVSAAARYNQCKTTRGNEVTSVMNRAKKAGKSVGVVTTTRVQHASPAGAYAHTVNRNWYSDADLPADAQMNGCQDIAAQLVNNMDIDVILGGGRKYMFPVGTPDPEYPDDASVNGVRKRKQNLVQAWQAKHQGAQYVWNRTALLQAADDSSVTHLMGLFEPADMKYNVQQDHTKDPTLQEMTEVALRVVSRNPRGFYLFVEGGRIDHGHHDDKAYMALTEAGMFDNAIAKANELTSELDTLILVTADHSHVFSFGGYTLRGTSIFGLAPSKALDSKSYTSILYGNGPGYALGGGSRPDVNDSTSEDPSYQQQAAVPQASETHGGEDVAVFARGPQAHLVHGVEEETFVAHIMAFAGCVEPYTDCNLPAPTTATSIPD
# modifications: coupled to IPDI-capped diol polymer
# B4: C2: alkaline phosphatase coupled to tri-functional Prepolymer A (high temperature), NCO:NH2 1.3:1 (conjugate, UniProt P19111 20-506, looked up)
# Intestinal-type alkaline …: LVPVEEEDPAFWNRQAAQALDVAKKLQPIQTAAKNVILFLGDGMGVPTVTATRILKGQMNGKLGPETPLAMDQFPYVALSKTYNVDRQVPDSAGTATAYLCGVKGNYRTIGVSAAARYNQCKTTRGNEVTSVMNRAKKAGKSVGVVTTTRVQHASPAGAYAHTVNRNWYSDADLPADAQMNGCQDIAAQLVNNMDIDVILGGGRKYMFPVGTPDPEYPDDASVNGVRKRKQNLVQAWQAKHQGAQYVWNRTALLQAADDSSVTHLMGLFEPADMKYNVQQDHTKDPTLQEMTEVALRVVSRNPRGFYLFVEGGRIDHGHHDDKAYMALTEAGMFDNAIAKANELTSELDTLILVTADHSHVFSFGGYTLRGTSIFGLAPSKALDSKSYTSILYGNGPGYALGGGSRPDVNDSTSEDPSYQQQAAVPQASETHGGEDVAVFARGPQAHLVHGVEEETFVAHIMAFAGCVEPYTDCNLPAPTTATSIPD
# modifications: coupled to Prepolymer A
# B5: C1: alkaline phosphatase coupled to tri-functional Prepolymer A (high temperature), NCO:NH2 0.7:1 (conjugate, UniProt P19111 20-506, looked up)
# Intestinal-type alkaline …: LVPVEEEDPAFWNRQAAQALDVAKKLQPIQTAAKNVILFLGDGMGVPTVTATRILKGQMNGKLGPETPLAMDQFPYVALSKTYNVDRQVPDSAGTATAYLCGVKGNYRTIGVSAAARYNQCKTTRGNEVTSVMNRAKKAGKSVGVVTTTRVQHASPAGAYAHTVNRNWYSDADLPADAQMNGCQDIAAQLVNNMDIDVILGGGRKYMFPVGTPDPEYPDDASVNGVRKRKQNLVQAWQAKHQGAQYVWNRTALLQAADDSSVTHLMGLFEPADMKYNVQQDHTKDPTLQEMTEVALRVVSRNPRGFYLFVEGGRIDHGHHDDKAYMALTEAGMFDNAIAKANELTSELDTLILVTADHSHVFSFGGYTLRGTSIFGLAPSKALDSKSYTSILYGNGPGYALGGGSRPDVNDSTSEDPSYQQQAAVPQASETHGGEDVAVFARGPQAHLVHGVEEETFVAHIMAFAGCVEPYTDCNLPAPTTATSIPD
# modifications: coupled to Prepolymer A
# B6: B2: alkaline phosphatase coupled to IPDI-capped diol TAKELACK P-24, NCO:NH2 2.7:1 (conjugate, UniProt P19111 20-506, looked up)
# Intestinal-type alkaline …: LVPVEEEDPAFWNRQAAQALDVAKKLQPIQTAAKNVILFLGDGMGVPTVTATRILKGQMNGKLGPETPLAMDQFPYVALSKTYNVDRQVPDSAGTATAYLCGVKGNYRTIGVSAAARYNQCKTTRGNEVTSVMNRAKKAGKSVGVVTTTRVQHASPAGAYAHTVNRNWYSDADLPADAQMNGCQDIAAQLVNNMDIDVILGGGRKYMFPVGTPDPEYPDDASVNGVRKRKQNLVQAWQAKHQGAQYVWNRTALLQAADDSSVTHLMGLFEPADMKYNVQQDHTKDPTLQEMTEVALRVVSRNPRGFYLFVEGGRIDHGHHDDKAYMALTEAGMFDNAIAKANELTSELDTLILVTADHSHVFSFGGYTLRGTSIFGLAPSKALDSKSYTSILYGNGPGYALGGGSRPDVNDSTSEDPSYQQQAAVPQASETHGGEDVAVFARGPQAHLVHGVEEETFVAHIMAFAGCVEPYTDCNLPAPTTATSIPD
# modifications: coupled to IPDI-capped diol polymer
# Legend:
# [1] = Circulatory half-life of radioiodinated peptide and conjugate after tail vein injection; design: species or system C57B1/6 mice; conditions: mouse, in vivo
# Method: The conjugate from Example XIII was passed over a disposable Sephadex G25 column (PD10 from Pharmacia, Inc.) to separate free from polymer-bound peptide. Confirmation of the purity of the conjugate was obtained by HPLC. About 45 μg of conjugate (based on peptide) were radiolabeled with 125-iodine using the well known chloramine-T procedure. Free 125-iodine was separated from radiolabeled conjugate using a PD10 column. Of the original 30 μCi of Na^125 I used for the iodination, more than 23 μCi were incorporated into the conjugate.
# Portions of the radiolabeled YRGDS-Prepolymer A conjugate from Example XIV were injected into the tail veins of C57B1/6 mice. As a control, YRGDS free peptide was radioiodinated by the procedure described in Example XIV and also injected. At various times blood was withdrawn from the animals and the amount of radioiodine remaining in the circulation determined using a gamma counter. A biphasic clearance curve (α:β) was obtained for both species. […] Thus by coupling the peptide to this polymer its clearance rate from the circulation is markedly extended.
# [2] = biological target: T1, alkaline phosphatase (Bos taurus, UniProt P19111); assay: Residual enzymatic activity of alkaline phosphatase after polymer modification (Example V, Table I); type: biochemical; conditions: for alk phos activity dA/dt: alkaline phosphatase reacted 1 hour with prepolymer at the listed NCO:protein NH2 ratio, quenched with TRIS, dialyzed; for alk phos activity % Remaining: relative to control without prepolymer, prepolymer at the listed NCO:protein NH2 ratio
# Method: A constant amount of protein was treated with increasing amount of prepolymer and the residual activity was determined. For comparison with Prepolymer A (high temperature) prepolymers, two other isocyanate prepolymers were used. One is a 550 dalton mono methoxy polyethylene oxide end capped with IPDI; the second is a diol ([…] P-24) of molecular weight 2200 comprising 80% ethylene oxide and 20% propylene oxide, end capped with IPDI. Thus the 3+functionality of Prepolymer A is compared to mono- and di-functional isocyanate derivatives.
# After one hour at ambient temperature the residual isocyanate was quenched by addition of 9 ml of 0.5 M TRIS, pH 9.0. The samples were then dialyzed vs. 0.05 M sodium borate, pH 9.0 at 4° C. using 7000 MWCO dialysis tubing. Samples of each were assayed for enzymatic activity then stored frozen.
# Table 1 lists the relative amounts of protein amine and polymer isocyanate reacted, and the residual enzymatic activity remaining.
# [3] = biological target: T1, alkaline phosphatase; assay: Residual enzyme activity of alkaline phosphatase-Prepolymer A conjugates, p-nitrophenylphosphate as substrate (Examples IX, X); type: biochemical, calf; design: Alkaline Phosphatase from calf intestine, Type I, was obtained from Sigma; purchased Sigma Type I; host or cells: calf intestine (tissue-derived); conditions: after 1 hour at ambient temperature
# Method: Alkaline Phosphatase from calf intestine, Type I, was obtained from Sigma. A 5 mg/ml solution was prepared in 0.01 M Tris, pH 8.0, containing 1mM CaCl2. To 0.2 ml of this enzyme solution was added 0.02 ml of a 50% (w/w) solution of Prepolymer A (low temperature) in acetonitrile. After 1 hour at ambient temperature the solution was assayed for residual enzyme activity and injected into an HPLC to evaluate the molecular size of the conjugate. […] Size analysis was performed by HPLC using a Zorbax GF250 column (DuPont) and a mobile phase consisting of 0.05 M sodium phosphate, pH 7.0, with 0.3 M NaCl at a flow rate of 0.5 ml/min.
# [4] = test system: alkaline phosphatase; conditions: alkaline phosphatase 50 ng/well; rabbit antisera, day 35 test bleed; FIG. 1
# Method: Antibody titers in the five rabbit sera from Example VI were determined by ELISA based on the following general procedure:
# 1) antigen is immobilized in 96-well PVC plates,
# 2) test antiserum is diluted with phosphate-TWEEN-chicken serum (PTCS) and incubated on the plate for 1 hour,
# 3) the plate is washed and Biotin-Protein A is added for 1 hour,
# 4) the plate is washed and glucose oxidase-avidin is added for 15 minutes.
# 5) the plate is washed and substrate (glucose+peroxidase+ABTS) is added. Absorbance at 405 nm is read at intervals on a plate reader.
Molecule,alk phos activity dA/dt [2],alk phos activity % Remaining [2] [%],other results
tyr-arg-gly-aspser [YRGDS free peptide],,,half-life of the initial phase (t178 α) [1]: 30 s; label cleared in the initial phase [1]: about 75%; second phase half life (t1/2 β) [1]: 2 hours 40 minutes
alkaline phosphatase,0.1200,100.0,
B1,0.0313,26.1,
B2,,,enzymatic activity remained after the reaction [3]: 54%
B3,0.0389,32.4,
B4,0.0688,57.5,
B5,,,binding of the antiserum raised against the antigen to immobilized alkaline phosphatase (immunogenicity) [4]: negligible binding
B6,0.0604,50.3,

# Source: patent US5091176A, “Polymer-modified peptide drugs having enhanced biological and pharmacological activities” (W. R. Grace & Co.-Conn., priority 1990, dated 1992)
